Measurements from IntAct's records for PubMed 17828277.

B1: Microtubule-associated protein RP/EB family member 1 (Homo sapiens), Q15691 (parent)
chain: MAVNVYSTSVTSDNLSRHDMLAWINESLQLNLTKIEQLCSGAAYCQFMDMLFPGSIALKKVKFQAKLEHEYIQNFKILQAGFKRMGVDKIIPVDKLVKGKFQDNFEFVQWFKKFFDANYDGKDYDPVAARQGQETAVAPSLVAPALNKPKKPLTSSSAAPQRPISTQRTAAAPKAGPGVVRKNPGVGNGDDEAAELMQQVNVLKLTVEDLEKERDFYFGKLRNIELICQENEGENDPVLQRIVDILYATDEGFVIPDEGGPQEEQEEY
B2: CAP-Gly domain-containing linker protein 1 (Homo sapiens), P30622-1 (parent)
chain: MSMLKPSGLKAPTKILKPGSTALKTPTAVVAPVEKTISSEKASSTPSSETQEEFVDDFRVGERVWVNGNKPGFIQFLGETQFAPGQWAGIVLDEPIGKNDGSVAGVRYFQCEPLKGIFTRPSKLTRKVQAEDEANGLQTTPASRATSPLCTSTASMVSSSPSTPSNIPQKPSQPAAKEPSATPPISNLTKTASESISNLSEAGSIKKGERELKIGDRVLVGGTKAGVVRFLGETDFAKGEWCGVELDEPLGKNDGAVAGTRYFQCQPKYGLFAPVHKVTKIGFPSTTPAKAKANAVRRVMATTSASLKRSPSASSLSSMSSVASSVSSRPSRTGLLTETSSRYARKISGTTALQEALKEKQQHIEQLLAERDLERAEVAKATSHVGEIEQELALARDGHDQHVLELEAKMDQLRTMVEAADREKVELLNQLEEEKRKVEDLQFRVEEESITKGDLETQTKLEHARIKELEQSLLFEKTKADKLQRELEDTRVATVSEKSRIMELEKDLALRVQEVAELRRRLESNKPAGDVDMSLSLLQEISSLQEKLEVTRTDHQREITSLKEHFGAREETHQKEIKALYTATEKLSKENESLKSKLEHANKENSDVIALWKSKLETAIASHQQAMEELKVSFSKGLGTETAEFAELKTQIEKMRLDYQHEIENLQNQQDSERAAHAKEMEALRAKLMKVIKEKENSLEAIRSKLDKAEDQHLVEMEDTLNKLQEAEIKVKELEVLQAKCNEQTKVIDNFTSQLKATEEKLLDLDALRKASSEGKSEMKKLRQQLEAAEKQIKHLEIEKNAESSKASSITRELQGRELKLTNLQENLSEVSQVKETLEKELQILKEKFAEASEEAVSVQRSMQETVNKLHQKEEQFNMLSSDLEKLRENLADMEAKFREKDEREEQLIKAKEKLENDIAEIMKMSGDNSSQLTKMNDELRLKERDVEELQLKLTKANENASFLQKSIEDMTVKAEQSQQEAAKKHEEEKKELERKLSDLEKKMETSHNQCQELKARYERATSETKTKHEEILQNLQKTLLDTEDKLKGAREENSGLLQELEELRKQADKAKAAQTAEDAMQIMEQMTKEKTETLASLEDTKQTNAKLQNELDTLKENNLKNVEELNKSKELLTVENQKMEEFRKEIETLKQAAAQKSQQLSALQEENVKLAEELGRSRDEVTSHQKLEEERSVLNNQLLEMKKRESKFIKDADEEKASLQKSISITSALLTEKDAELEKLRNEVTVLRGENASAKSLHSVVQTLESDKVKLELKVKNLELQLKENKRQLSSSSGNTDTQADEDERAQESQIDFLNSVIVDLQRKNQDLKMKVEMMSEAALNGNGDDLNNYDSDDQEKQSKKKPRLFCDICDCFDLHDTEDCPTQAQMSEDPPHSTHHGSRGEERPYCEICEMFGHWATNCNDDETF

Variants of: B1
Details: with dctn1_human DCTN1, Q14203
Target sequence in this assay (Q14203 whole entry): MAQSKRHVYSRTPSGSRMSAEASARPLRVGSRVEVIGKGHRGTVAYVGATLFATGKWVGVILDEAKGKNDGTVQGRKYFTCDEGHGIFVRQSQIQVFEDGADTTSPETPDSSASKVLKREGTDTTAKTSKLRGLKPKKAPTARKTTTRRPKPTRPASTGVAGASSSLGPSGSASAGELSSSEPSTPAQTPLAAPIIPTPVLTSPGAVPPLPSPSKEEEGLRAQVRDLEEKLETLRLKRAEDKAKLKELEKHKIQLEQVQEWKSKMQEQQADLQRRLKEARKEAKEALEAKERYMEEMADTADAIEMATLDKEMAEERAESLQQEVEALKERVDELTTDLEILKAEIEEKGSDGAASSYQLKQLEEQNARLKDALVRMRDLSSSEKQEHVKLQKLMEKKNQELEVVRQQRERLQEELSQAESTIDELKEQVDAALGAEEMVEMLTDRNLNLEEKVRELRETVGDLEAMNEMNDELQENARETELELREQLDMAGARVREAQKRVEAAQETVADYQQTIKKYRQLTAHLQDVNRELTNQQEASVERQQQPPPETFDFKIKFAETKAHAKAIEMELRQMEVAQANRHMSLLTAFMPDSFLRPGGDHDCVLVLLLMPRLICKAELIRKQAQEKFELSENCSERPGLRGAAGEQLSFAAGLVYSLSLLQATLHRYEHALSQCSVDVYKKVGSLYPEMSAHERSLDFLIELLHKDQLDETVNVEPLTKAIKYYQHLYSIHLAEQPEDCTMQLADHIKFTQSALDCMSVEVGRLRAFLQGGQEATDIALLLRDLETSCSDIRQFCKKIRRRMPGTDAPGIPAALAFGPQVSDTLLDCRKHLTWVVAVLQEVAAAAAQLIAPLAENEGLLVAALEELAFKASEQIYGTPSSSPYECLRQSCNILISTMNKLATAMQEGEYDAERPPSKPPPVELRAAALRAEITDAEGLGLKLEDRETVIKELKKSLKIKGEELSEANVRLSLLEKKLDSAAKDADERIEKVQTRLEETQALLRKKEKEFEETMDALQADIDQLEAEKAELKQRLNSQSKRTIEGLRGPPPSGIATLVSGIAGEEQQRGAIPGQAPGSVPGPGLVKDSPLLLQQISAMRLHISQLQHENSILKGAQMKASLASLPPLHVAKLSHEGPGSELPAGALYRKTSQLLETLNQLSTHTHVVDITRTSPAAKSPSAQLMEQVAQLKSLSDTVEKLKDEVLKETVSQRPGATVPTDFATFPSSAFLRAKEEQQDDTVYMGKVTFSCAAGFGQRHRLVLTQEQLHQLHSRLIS

Variant | effect of a mutation on the interaction
MAVNVYSTSVTSDNLSRHDMLAWINESLQLNLTKIEQLCSGAAYCQFMDMLFPGSIALKKVKFQAKLEHEYIQNFKILQAGFKRMGVDKIIPVDKLVKGKFQDNFEFVQWFKKFFDANYDGKDYDPVAARQGQETAVAPSLVAPALNKPKKPLTSSSAAPQRPISTQRTAAAPKAGPGVVRKNPGVGNGDDEAAELMQQVNVLKLTVEDLEKERDFYFGKLRNIELICQENEGENDPVLQRIVDILYATDEGFVIPDEGGPQEEQEEG [Y268G] | decreasing interaction strength
MAVNVYSTSVTSDNLSRHDMLAWINESLQLNLTKIEQLCSGAAYCQFMDMLFPGSIALKKVKFQAKLEHEYIQNFKILQAGFKRMGVDKIIPVDKLVKGKFQDNFEFVQWFKKFFDANYDGKDYDPVAARQGQETAVAPSLVAPALNKPKKPLTSSSAAPQRPISTQRTAAAPKAGPGVVRKNPGVGNGDDEAAELMQQVNVLKLTVEDLEKERDFYFGKLRNIELICQENEGENDPVLQRIVDILYATDEGFVIPDEGGPQEEQEEI [Y268I] | decreasing interaction strength

Variants of: B2
Details: with dctn1_human DCTN1, Q14203
Target sequence in this assay (Q14203 whole entry): as the sequence (Q14203 whole entry) above

Variant | effect of a mutation on the interaction
I1410D | decreasing interaction strength
I1410H | decreasing interaction strength
